{
  "source": "paper PMC9084902",
  "about": "“Low-Molecular Weight Protamine Overcomes Chondroitin Sulfate Inhibition of Neural Regeneration” (Frontiers in Cell and Developmental Biology, 2022)",
  "origin": "cited, not measured here",
  "key": {"glypican-1": {"system": "glypican-1", "conditions": "through heparan sulfate chains; ref Paveliev et al., 2016; cited from earlier work", "from_the_text": "In the case of HB-GAM we have identified glypican-1 as a neuron surface receptor using unbiased mass spectrometry search of neuron binding sites for the substrate-attached HB-GAM ([Paveliev et al., 2016]). […] Interaction of glypican-1 with LMWP also appears likely since LMWP binds to heparin/heparan sulfate chains. Another possible cell surface receptor of LMWP is the transmembrane receptor PTPRZ (protein tyrosine ph ..."}, "[1]": {"conditions": "ref Rauvala, 1989; cited from earlier work", "from_the_text": "Protamine is a small 33 amino acid long protein that takes part in DNA packing during spermatogenesis ([Kasinsky et al., 2011]). Over 60% of the salmon protamine sequence is comprised of arginines so that it interacts strongly with negatively charged DNA phosphates in vivo and potentially with any other negatively charged molecules. […] Protamine sulfate is therefore widely used as a drug in cardiopulmonary bypass surgery to stop the effect of heparin ([Kaneda et al., 2005]; [Bromfield et al. ... || The CS chains even enhance the neurite outgrowth-promoting effect of HB-GAM, and we have ended up in a model according to which the CS chains of the CSPGs display a positive role by concentrating HB-GAM on the matrix and presenting it to neuron surface receptors. According to our model, two polycationic regions separated by a linker are essential to reverse the CS inhibition of neurite outgrowth ([Paveliev et al., 2016]; [Rauvala et al., 2017]). To test our hypothesis we decided to search for peptide structures that are similar to HB-GAM and display similar binding properties. Protamine displa ..."}, "[2]": {"system": "hemisection and hemicontusion spinal cord injury models", "conditions": "mice; ref Kulesskaya et al., 2021; cited from earlier work", "from_the_text": "(§1) Our candidate protein to overcome the CS inhibition on neurite outgrowth and regeneration has been HB-GAM (heparin-binding growth-associated molecule; pleiotrophin) that was initially isolated by screening for factors from juvenile rat brain that enhance neurite outgrowth in CNS neurons ([Rauvala, 1989]; [Li et al., 1990]; [Merenmies and Rauvala, 1990]). […] Furthermore, we have recently shown t ..."}, "CNS neurons": {"system": "CNS neurons", "conditions": "aggrecan and a CSPG mixture isolated from brain; ref Paveliev et al., 2016; cited from earlier work", "from_the_text": "as §1"}},
  "data": [
    {"molecule": "heparin-binding growth-associated molecule (protein, UniProt P63090 33-168, looked up, initially isolated by screening for factors from juvenile rat brain that enhance neurite outgrowth in CNS neurons) Pleiotrophin: GKKEKPEKKVKKSDCGEWQWSVCVPTSGDCGLGTREGTRTGAECKQTMKTQRCKIPCNWKKQFGAECKYQFQAWGECDLNTALKTRTGSLKRALHNADCQKTVTISKPCGKLTKPKPQAESKKKKKEGKKQEKMLD", "values": [
      {"measurement": "binding to glypican-1", "setting": "glypican-1", "value": "binds to HB-GAM through its heparan sulfate chains"},
      {"measurement": "binding to heparin", "setting": "[1]", "value": "binds avidly to heparin"},
      {"measurement": "functional recovery after spinal cord injury", "setting": "[2]", "value": "enhances functional recovery in hemisection and hemicontusion spinal cord injury models in mice"},
      {"measurement": "neurite outgrowth on CSPG substrates", "setting": "CNS neurons", "value": "overcomes the CS inhibition and enhances neurite outgrowth on CSPG substrates"}
    ]}
  ]
}
